For two variants, response results are on record in article PMC8319186, “Mitochondrial adaptor TRAK2 activates and functionally links opposing kinesin and dynein motors” (Nature Communications, 2021).

B1: Halo-TRAK2 [not stated] / Myc-KIF5B [mouse] (parent complex)
chain 1: MSQSQNAIFTSPTGEENLMNSNHRDSESITDVCSNEDLPEVELVSLLEEQLPQYRLKVDTLFLYENQDWTQSPHQRQHASDALSPVLAEETFRYMILGTDRVEQMTKTYNDIDMVTHLLAERDRDLELAARIGQALLKRNHVLSEQNESLEEQLGQAFDQVNQLQHELCKKDELLRIVSIASEESETDSSCSTPLRFNESFSLSQGLLQLEMLQEKLKELEEENMALRSKACHIKTETVTYEEKEQQLVSDCVKELRETNAQMSRMTEELSGKSDELIRYQEELSSLLSQIVDLQHKLKEHVIEKEELKLHLQASKDAQRQLTMELHELQDRNMECLGMLHESQEEIKELRSRSGPTAHLYFSQSYGAFTGESLAAEIEGTMRKKLSLDEESSLFKQKAQQKRVFDTVRIANDTRGRSISFPALLPIPGSNRSSVIMTAKPFESGLQQTEDKSLLNQGSSSEEVAGSSQKMGQPGPSGDSDLATALHRLSLRRQNYLSEKQFFAEEWQRKIQVLADQKEGVSGCVTPTESLASLCTTQSEITDLSSASCLRGFMPEKLQIVKPLEGSQTLYHWQQLAQPNLGTILDPRPGVITKGFTQLPGDAIYHISDLEEDEEEGITFQVQQPLEVEEKLSTSKPVTGIFLPPITSAGGPVTVATANPGKCLSCTNSTFTFTTCRILHPSDITQVTPSSGFPSLSCGSSGSSSSNTAVNSPALSYRLSIGESITNRRDSTTTFSSTMSLAKLLQERGISAKVYHSPISENPLQPLPKSLAIPSTPPNSPSHSPCPSPLPFEPRVHLSENFLASRPAETFLQEMYGLRPSRNPPDVGQLKMNLVDRLKRLGIARVVKNPGAQENGRCQEAEIGPQKPDSAVYLNSGSSLLGGLRRNQSLPVIMGSFAAPVCTSSPKMGVLKED
chain 2: MADPAECNIKVMCRFRPLNESEVNRGDKYVAKFQGEDTVMIASKPYAFDRVFQSSTSQEQVYNDCAKKIVKDVLEGYNGTIFAYGQTSSGKTHTMEGKLHDPEGMGIIPRIVQDIFNYIYSMDENLEFHIKVSYFEIYLDKIRDLLDVSKTNLSVHEDKNRVPYVKGCTERFVCSPDEVMDTIDEGKSNRHVAVTNMNEHSSRSHSIFLINVKQENTQTEQKLSGKLYLVDLAGSEKVSKTGAEGAVLDEAKNINKSLSALGNVISALAEGSTYVPYRDSKMTRILQDSLGGNCRTTIVICCSPSSYNESETKSTLLFGQRAKTIKNTVCVNVELTAEQWKKKYEKEKEKNKTLRNTIQWLENELNRWRNGETVPIDEQFDKEKANLEAFTADKDIAITSDKPAAAVGMAGSFTDAERRKCEEELAKLYKQLDDKDEEINQQSQLVEKLKTQMLDQEELLASTRRDQDNMQAELNRLQAENDASKEEVKEVLQALEELAVNYDQKSQEVEDKTKEYELLSDELNQKSATLASIDAELQKLKEMTNHQKKRAAEMMASLLKDLAEIGIAVGNNDVKQPEGTGMIDEEFTVARLYISKMKSEVKTMVKRCKQLESTQTESNKKMEENEKELAACQLRISQHEAKIKSLTEYLQNVEQKKRQLEESVDSLGEELVQLRAQEKVHEMEKEHLNKVQTANEVKQAVEQQIQSHRETHQKQISSLRDEVEAKEKLITDLQDQNQKMVLEQERLRVEHERLKATDQEKSRKLHELTVMQDRREQARQDLKGLEETVAKELQTLHNLRKLFVQDLATRVKKSAEVDSDDTGGSAAQKQKISFLENNLEQLTKVHKQLVRDNADLRCELPKLEKRLRATAERVKALESALKEAKENASRDRKRYQQEVDRIKEAVRSKNMARRGHSAQIAKPIRPGQHPAASPTHPGTVRGGGSFVQNNQPVGLRGGGGKQS

In this assay the parent is B1. Description: co-immunoprecipitation (Halo antibody IP, western blot quantification); extracts from COS-7 cells transfected with Myc-KIF5B and Halo-tagged constructs; mean ± s.d. from three independent experiments; parent: 0.65; read off a plot.
In the case of chain 1 I132D, the response was around 0.6. For chain 1 A129V, chain 1 A130V the value was around 0.61.
